Measured values as given in patent US20260216326A1 (PROMETHEUS BIOSCIENCES, published 2026).
Where a chain is given by its changes, count along the chain named. Blank lines part the entries; values can stand above or below the binder they belong to.

Biological target: T1, human TL1A (Fitzgerald #30R-AT070) (human, UniProt O95150 72-251, limits assumed)
T1 construct: Coated on the ELISA plate at 1 ug/mL; also called TNFSF15
T1 sequence (looked up): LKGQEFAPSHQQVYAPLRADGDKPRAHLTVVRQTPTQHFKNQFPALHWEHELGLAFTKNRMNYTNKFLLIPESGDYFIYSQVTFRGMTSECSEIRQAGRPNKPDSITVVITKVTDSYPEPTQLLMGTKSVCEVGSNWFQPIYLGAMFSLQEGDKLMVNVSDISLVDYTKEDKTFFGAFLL
Test: ELISA titration, coated human TL1A, culture supernatant

B1: A74 (antibody, human IgG1, V domains shown)
VH: QVQLVQSGAEVKKPGASVKVSCKASGFDIQDTYMHWVRQAPGQGLEWMGRIEPASGHIKYDPKFQGRVTITTDTSTSTVYMELSSLRSEDTAVYYCARSGGLPDWWGQGTTVTVSS
VL: EIVLTQSPGTLSLSPGERATLSCRASSSVSYMYWYQQKPGQAPRPWIYATSNLASGIPDRFSGSGSGTDFTLTISRLEPEDFAVYYCQQWEGNPRTFGGGTKLEIK
notes: human IgG1/kappa (pFuse vectors), culture supernatant
Kd: 141 pM

B2: A86 (antibody, human IgG1, V domains shown)
VH: B1 VH with I70M, T72R
VL: B1 VL with P45L, W46L, F70Y
notes: as for B1
Kd: 129 pM

B6: A93 (antibody, human IgG1, V domains shown)
VH: B1 VH with I70M, T72R, V79A, M81L
VL: B1 VL with P45L, W46L
notes: as for B1
Kd: 117 pM

B8: A85 (antibody, human IgG1, V domains shown)
VH: B1 VH with I70M, T72R
VL: B1 VL with P45L, W46L, I57V
notes: as for B1
Kd: 130 pM

B9: A75 (antibody, human IgG1, V domains shown)
VH: B1 VH with V68A
VL: B1 VL
notes: as for B1
Kd: 259 pM

B11: A90 (antibody, human IgG1, V domains shown)
VH: B1 VH with I70M, T72R
VL: B1 VL with L11M, P45L, W46L
notes: as for B1
Kd: 107 pM

B12: A101 (antibody, human IgG1, V domains shown)
VH: B1 VH with R38K, A40R, E52D, I58T, G66V, V68A, V79A, M81L, W105V
VL: B1 VL with P45L, W46L, E91K
notes: as for B1
Kd: 96 pM

B14: A87 (antibody, human IgG1, V domains shown)
VH: B1 VH with I70M, T72R
VL: B1 VL with P45L, W46L, L77V
notes: as for B1
Kd: 121 pM

B15: A99 (antibody, human IgG1, V domains shown)
VH: B1 VH with G66V, T72R
VL: B1 VL with P45L, W46L
notes: as for B1
Kd: 102 pM

B18: A102 (antibody, human IgG1, V domains shown)
VH: B1 VH with R38K, A40R, M48I, E52D, I58T, G66V, V79A, M81L, W105V
VL: B1 VL with P45L, W46L, E91K
notes: as for B1
Kd: 104 pM

B19: A92 (antibody, human IgG1, V domains shown)
VH: B1 VH with I70M, T72R, M81L
VL: B1 VL with P45L, W46L
notes: as for B1
Kd: 121 pM

B20: A95 (antibody, human IgG1, V domains shown)
VH: B1 VH with V68A
VL: B1 VL
notes: as for B1
Kd: 105 pM

B21: A103 (antibody, human IgG1, V domains shown)
VH: B1 VH with R38K, A40R, M48I, E52D, I58T, G66V, T72R, V79A, M81L, W105V
VL: B1 VL with P45L, W46L, E91K
notes: as for B1
Kd: 107 pM

B22: A98 (antibody, human IgG1, V domains shown)
VH: B1 VH with G66V, V68A, I70M, T72R
VL: B1 VL with P45L, W46L
notes: as for B1
Kd: 140 pM

B26: A105 (antibody, human IgG1, V domains shown)
VH: B1 VH with R38K, A40R, M48I, E52D, I58T, G66V, V68A, W105V
VL: B1 VL with P45L, W46L, E91K
notes: as for B1
Kd: 110 pM

B27: A104 (antibody, human IgG1, V domains shown)
VH: B1 VH with M48I, E52D, I58T, G66V, V68A, V79A, M81L, W105V
VL: B1 VL with P45L, W46L, E91K
notes: as for B1
Kd: 108 pM

B29: A91 (antibody, human IgG1, V domains shown)
VH: B1 VH with I70M, T72R, V79A
VL: B1 VL with P45L, W46L
notes: as for B1
Kd: 132 pM

B30: A89 (antibody, human IgG1, V domains shown)
VH: B1 VH with I70M, T72R
VL: B1 VL with L13A, P45L, W46L
notes: as for B1
Kd: 117 pM

Continued by falling Kd, values first:

Kd: 95 pM
B5: A96 (antibody, human IgG1, V domains shown)
VH: B1 VH with V68A, I70M, T72R
VL: B1 VL
notes: as for B1

Kd: 94 pM
B17: A117 (antibody, human IgG1, V domains shown)
VH: B1 VH with E52D, I70M, T72R
VL: B1 VL
notes: as for B1

Kd: 84 pM
B16: A100 (antibody, human IgG1, V domains shown)
VH: B1 VH with A40R, M48I, E52D, I58T, G66V, V68A, V79A, M81L, W105V
VL: B1 VL with P45L, W46L, E91K
notes: as for B1

Kd: 81 pM
B7: A94 (antibody, human IgG1, V domains shown)
VH: B1 VH with G66V, V68A, T72R
VL: B1 VL with P45L, W46L
notes: as for B1

Kd: 81 pM
B31: A88 (antibody, human IgG1, V domains shown)
VH: B1 VH with I70M, T72R
VL: B1 VL with P45L, W46L, F70Y, L77V
notes: as for B1

Kd: 71 pM
B3: A97 (antibody, human IgG1, V domains shown)
VH: B1 VH with G66V, I70M, T72R
VL: B1 VL with P45L, W46L
notes: as for B1

Kd: 71 pM
B25: A107 (antibody, human IgG1, V domains shown)
VH: B1 VH with R38K, A40R, M48I, E52D, I58T, G66V, V68A, V79A, M81L, W105V
VL: B1 VL with P45L, W46L
notes: as for B1

Kd: 68 pM
B10: A111 (antibody, human IgG1, V domains shown)
VH: B1 VH with A40R, I70M, T72R
VL: B1 VL
notes: as for B1

Kd: 58 pM
B34: A115 (antibody, human IgG1, V domains shown)
VH: B1 VH with G66V, V68A, I70M, T72R
VL: B1 VL
notes: as for B1

Kd: 56 pM
B32: A110 (antibody, human IgG1, V domains shown)
VH: B1 VH with R38K, I70M, T72R
VL: B1 VL
notes: as for B1

Kd: 55 pM
B4: A108 (antibody, human IgG1, V domains shown)
VH: B1 VH with Q1E, I70M, T72R
VL: B1 VL
notes: as for B1

Kd: 54 pM
B24: A112 (antibody, human IgG1, V domains shown)
VH: B1 VH with R38K, A40R, I70M, T72R
VL: B1 VL
notes: as for B1

Kd: 53 pM
B33: A116 (antibody, human IgG1, V domains shown)
VH: B1 VH with G66V, T72R
VL: B1 VL
notes: as for B1

Kd: 51 pM
B28: A114 (antibody, human IgG1, V domains shown)
VH: B1 VH with G66V, I70M, T72R
VL: B1 VL
notes: as for B1

Kd: 50 pM
B13: A113 (antibody, human IgG1, V domains shown)
VH: B1 VH with G66V, V68A, T72R
VL: B1 VL
notes: as for B1

Kd: 50 pM
B23: A109 (antibody, human IgG1, V domains shown)
VH: B1 VH with I70M, T72R, V79A
VL: B1 VL
notes: as for B1
